Measured values as given in publication PMC2196190.

Target: hBUBR1 (human (endogenous in HeLa)) (UniProt O60566)
Test: co-IP

Chain of UniProt O60566 (O60566 whole entry): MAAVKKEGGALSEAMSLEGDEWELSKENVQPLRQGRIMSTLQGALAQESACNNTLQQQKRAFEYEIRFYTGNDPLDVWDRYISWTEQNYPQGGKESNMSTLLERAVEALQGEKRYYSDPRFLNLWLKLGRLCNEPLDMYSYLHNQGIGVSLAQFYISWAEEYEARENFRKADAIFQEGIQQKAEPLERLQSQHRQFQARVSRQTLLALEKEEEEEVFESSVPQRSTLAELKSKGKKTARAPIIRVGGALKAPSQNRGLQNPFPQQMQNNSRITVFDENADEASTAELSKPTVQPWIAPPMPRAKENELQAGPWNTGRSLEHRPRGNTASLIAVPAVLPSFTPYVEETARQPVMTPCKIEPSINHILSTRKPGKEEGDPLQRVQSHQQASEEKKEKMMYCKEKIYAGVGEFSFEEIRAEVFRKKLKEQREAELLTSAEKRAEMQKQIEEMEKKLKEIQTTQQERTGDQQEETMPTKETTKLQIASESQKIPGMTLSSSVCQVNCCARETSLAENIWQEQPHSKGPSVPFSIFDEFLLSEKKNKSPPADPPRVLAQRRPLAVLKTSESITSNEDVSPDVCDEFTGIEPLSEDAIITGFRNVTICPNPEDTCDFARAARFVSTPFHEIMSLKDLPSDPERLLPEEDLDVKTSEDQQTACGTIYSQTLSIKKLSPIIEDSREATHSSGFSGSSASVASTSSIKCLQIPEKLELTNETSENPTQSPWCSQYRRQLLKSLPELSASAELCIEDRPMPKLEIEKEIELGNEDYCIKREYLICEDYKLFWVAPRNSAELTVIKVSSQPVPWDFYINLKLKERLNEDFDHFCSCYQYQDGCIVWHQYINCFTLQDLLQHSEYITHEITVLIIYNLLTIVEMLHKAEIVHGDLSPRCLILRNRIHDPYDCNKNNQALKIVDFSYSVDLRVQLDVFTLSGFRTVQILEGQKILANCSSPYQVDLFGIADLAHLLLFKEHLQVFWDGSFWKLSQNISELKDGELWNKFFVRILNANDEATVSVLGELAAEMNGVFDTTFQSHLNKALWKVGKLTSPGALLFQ

anaphase-promoting complex/cyclosome (APC/C) from mitotic HeLa cells (from UniProt P30260;Q13042;Q9UJX3)
stoichiometry N: 1
